According to patent publication US20200368361A1 (Regeneron, published 2020):

T1: human MSR1 with a C-terminal Myc tag expressed on HEK293.Myc.hMSR1 cells (human, UniProt P21757 1-451)
T1 sequence (looked up): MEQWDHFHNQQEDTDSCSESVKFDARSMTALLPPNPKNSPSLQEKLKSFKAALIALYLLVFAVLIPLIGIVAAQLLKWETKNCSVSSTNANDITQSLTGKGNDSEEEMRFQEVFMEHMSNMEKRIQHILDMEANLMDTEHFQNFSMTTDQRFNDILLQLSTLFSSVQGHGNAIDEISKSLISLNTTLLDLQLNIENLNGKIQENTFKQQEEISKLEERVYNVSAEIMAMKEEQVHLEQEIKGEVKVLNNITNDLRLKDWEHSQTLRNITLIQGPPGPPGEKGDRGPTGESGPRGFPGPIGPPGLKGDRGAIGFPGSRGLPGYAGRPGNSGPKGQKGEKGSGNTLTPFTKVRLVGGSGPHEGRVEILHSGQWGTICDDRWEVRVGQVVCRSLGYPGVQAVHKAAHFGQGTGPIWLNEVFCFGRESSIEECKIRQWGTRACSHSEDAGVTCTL

T2: mouse MSR1 on RAW264.7 cells (mouse, UniProt P30204 1-458)
T2 construct: whole, on cells
T2 sequence (looked up): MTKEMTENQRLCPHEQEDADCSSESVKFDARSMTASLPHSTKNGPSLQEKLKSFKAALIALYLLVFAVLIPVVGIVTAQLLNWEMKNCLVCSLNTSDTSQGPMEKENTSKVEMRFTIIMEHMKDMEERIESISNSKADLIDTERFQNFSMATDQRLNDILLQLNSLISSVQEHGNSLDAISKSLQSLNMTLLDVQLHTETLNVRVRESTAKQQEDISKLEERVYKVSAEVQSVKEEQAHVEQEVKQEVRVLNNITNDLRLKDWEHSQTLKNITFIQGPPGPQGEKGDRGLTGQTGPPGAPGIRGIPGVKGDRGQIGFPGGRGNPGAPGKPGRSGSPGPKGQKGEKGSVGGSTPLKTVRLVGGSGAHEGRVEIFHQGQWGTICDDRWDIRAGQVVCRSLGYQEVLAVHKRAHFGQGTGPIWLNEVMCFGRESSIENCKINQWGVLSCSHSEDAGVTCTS

T3: full length human MSR1 with a C-terminal Myc tag on HEK293.Myc.hMSR1 cells (human, UniProt P21757 1-451)
T3 construct: whole, on cells
T3 sequence (looked up): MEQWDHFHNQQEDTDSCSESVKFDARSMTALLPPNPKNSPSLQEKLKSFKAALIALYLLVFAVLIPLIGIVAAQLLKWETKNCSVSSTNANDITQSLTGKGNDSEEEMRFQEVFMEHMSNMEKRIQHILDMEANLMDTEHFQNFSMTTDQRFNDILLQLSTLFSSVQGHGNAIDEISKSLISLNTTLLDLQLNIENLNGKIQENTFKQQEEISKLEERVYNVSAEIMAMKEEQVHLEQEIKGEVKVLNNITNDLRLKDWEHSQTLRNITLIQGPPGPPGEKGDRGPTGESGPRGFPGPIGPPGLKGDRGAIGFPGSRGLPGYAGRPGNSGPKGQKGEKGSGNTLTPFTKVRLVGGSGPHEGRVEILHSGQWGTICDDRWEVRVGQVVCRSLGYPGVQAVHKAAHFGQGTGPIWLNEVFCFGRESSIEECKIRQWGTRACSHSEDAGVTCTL

T4: full length monkey MSR1 on HEK293.mfMSR1 cells (Macaca fascicularis, UniProt A0A2K5UWE2 1-451)
T4 construct: whole, on cells
T4 sequence: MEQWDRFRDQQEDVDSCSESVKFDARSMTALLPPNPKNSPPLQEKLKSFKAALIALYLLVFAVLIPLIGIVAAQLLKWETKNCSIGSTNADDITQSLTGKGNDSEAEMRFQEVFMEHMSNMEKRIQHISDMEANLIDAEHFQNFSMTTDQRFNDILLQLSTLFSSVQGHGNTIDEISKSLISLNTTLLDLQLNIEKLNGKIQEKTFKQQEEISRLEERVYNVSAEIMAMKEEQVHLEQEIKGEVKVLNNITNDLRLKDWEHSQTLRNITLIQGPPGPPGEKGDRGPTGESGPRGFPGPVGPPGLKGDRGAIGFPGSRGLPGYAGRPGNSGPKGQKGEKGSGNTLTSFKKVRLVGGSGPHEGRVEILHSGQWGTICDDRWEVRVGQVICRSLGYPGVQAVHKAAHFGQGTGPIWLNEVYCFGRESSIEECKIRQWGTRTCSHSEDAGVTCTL


Experiments:
[1] = biological target: T1, human MSR1 with a C-terminal Myc tag …; assay: cell-based or functional assay
[2] = biological target: T2, mouse MSR1 on RAW264.7 cells; assay: flow cytometry, RAW264.7 cells, 10 ug/mL;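 also: antibodies bound to RAW264.7 cells for 30 min on ice after Fc block with mouse IgG, S/N is MFI relative to unstained cells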
Method: To block binding to Fc receptors, RAW264.7 cells were incubated for 30 minutes at 4° C. with 500 μg/mL mouse IgG (Jackson ImmunoResearch, Cat #015-000-003) diluted in staining buffer, while B16F10.9 cells remained in staining buffer. Following Fc receptor blocking, 10 μg/mL of anti-MSR1 antibodies or an isotype control antibody were added to the cells and were subsequently incubated for 30 minutes on ice. […] The signal to noise (S/N) was determined by calculating the ratio of the anti-MSR1 antibodies or the control antibodies MFI to the unstained sample MFI (Table 16).

[3] = biological target: T3, full length human MSR1 with a …; assay: ECL cell binding, HEK293.Myc.hMSR1
Method: (§1) All cells were washed once with 1×PBS with Ca²⁺/Mg²⁺ and counted with a Cellometer™ Auto T4 cell counter (Nexcelom Bioscience). Approximately 1.0×10⁴ cells were seeded separately onto 96-well carbon electrode plates [MULTI-ARRAY high bind plate, Meso Scale Diagnostics] and incubated for 1 hour at 37° C. Non-specific binding sites were then blocked by 2% BSA (w/v) in PBS with Ca²⁺/Mg²⁺ for 1 hour at room temperature. THP-1 cells were pre-incubated for 0.5 hours at room temperature in sample dilution buffer with: 1) 1 mg/mL Fc receptor block reagents to block Fc gamma receptors on THP-1 cell surface [whole molecule human IgG (Jackson Immunoresearch, Cat #009-000-003) for wells being tested with anti-MSR1-mFc antibodies or 2) whole molecule mIgG (Jackson Immunoresearch, Cat #015-000-003) for wells being tested with anti-MSR1-hFc antibodies. Antibody binding on HEK293.Myc.hMSR1, HEK293.mfMSR1 and HEK293 cells was tested without Fc receptor block reagents. […] Plates were then washed to remove unbound antibodies an AquaMax2000 plate washer with a cell washing head (MDS Analytical Technologies). […] Plates were washed and developed with Read Buffer (Meso Scale Diagnostics, Cat #R92TD-2) according to manufacturer's recommended procedure and luminescent signals were recorded with a SECTOR Imager 600 (Meso Scale Diagnostics). Luminescence intensity, measured in relative light units (RLU), was recorded to indicate the binding intensity of each antibody at the range of concentrations.

[4] = biological target: T4, full length monkey MSR1 on …; assay: ECL cell binding, HEK293.mfMSR1
Method: as §1

Row | IC50 of inhibition of Dil-Acetylated LDL uptake [1] | IC50 of inhibition of Dil-Oxidized LDL uptake [1] | MFI [2] | Binder | other results
1 | 2.4 nM | 1.8 nM |  | H1H21227N-N297Q (antibody, V domains shown) VH: QVQLVQSGAEVKKPGASVKVSCKVSGYTLTELSIHWVRQVPGKGLEWMGGFDPEEGETIFAQEFRDRVTLTEDTSPDTAYMELSSLKSEDAAVYYCTTPRYCNNGICYDYWGQGTLVTVSS VL: DIQMTQSPSSLSASVGDRVTITCRASQSISNYLNWYQQKPGKAPKLLIYTASSLQSGVPSRFSGSGSGTDFTLTISSLQTEDFATYYCQQSYSNFPITFGQGTRLEIKR | % Inhibition of Dil-Acetylated LDL uptake [1]: 65%; % Inhibition of Dil-Oxidized LDL uptake [1]: 94%
2 |  |  | 3580 | H1H21231N-N297Q (antibody, human IgG1, V domains shown, human IgG1 Fc with N297Q) VH: EVQLVESGGGLVQPGGSLRLSCAASGFTFSDHYMDWVRQAPGKGLEWVGRTRNKANSHTTEYTASVTGRFTISRDDSRNSLYLQMNSLKTEDTAVYYCVRAGIIGTLFDYWGQGTLVTVSS VL: DIQMTQFPSSLSASVGDRVTITCRASQSISSFLNWFQQKPGKAPKFLIYAASSLQSGVPSRFSGSGSGTDFTLTISSLQPEDFATYYCQQSYSSPPITFGQGTRLEIKR | S/N [2]: 1
3 | 3.5 nM | 3.6 nM |  | H1H21231N (antibody, V domains shown) VH: EVQLVESGGGLVQPGGSLRLSCAASGFTFSDHYMDWVRQAPGKGLEWVGRTRNKANSHTTEYTASVTGRFTISRDDSRNSLYLQMNSLKTEDTAVYYCVRAGIIGTLFDYWGQGTLVTVSS VL: DIQMTQFPSSLSASVGDRVTITCRASQSISSFLNWFQQKPGKAPKFLIYAASSLQSGVPSRFSGSGSGTDFTLTISSLQPEDFATYYCQQSYSSPPITFGQGTRLEIKR | % Inhibition of Dil-Acetylated LDL uptake [1]: 63%; % Inhibition of Dil-Oxidized LDL uptake [1]: 78%
4 | 2.1 nM | 2 nM |  | H1H21227N (antibody, V domains shown) VH: QVQLVQSGAEVKKPGASVKVSCKVSGYTLTELSIHWVRQVPGKGLEWMGGFDPEEGETIFAQEFRDRVTLTEDTSPDTAYMELSSLKSEDAAVYYCTTPRYCNNGICYDYWGQGTLVTVSS VL: DIQMTQSPSSLSASVGDRVTITCRASQSISNYLNWYQQKPGKAPKLLIYTASSLQSGVPSRFSGSGSGTDFTLTISSLQTEDFATYYCQQSYSNFPITFGQGTRLEIKR | % Inhibition of Dil-Acetylated LDL uptake [1]: 65%; % Inhibition of Dil-Oxidized LDL uptake [1]: 89%
5 | 1.8 nM | > 10 nM |  | H1H27731P-N297Q (antibody, V domains shown) VH: QLQLQESGPGLVKPSETLSLTCTVSGGSISRISYYWGWIRQPPGKGLEWIGSIYDSGSTYYNPSLKSRVTISIDTSKNQFSLKLSSVTAADTAVYYCVRYSSSSAFAFDYWGQGTLVTVSS VL: DIQMTQSPSSVSASVGDRVTITCRASQGISSWLAWYQQKPGKAPKLLIYAASSLQSGVPSRFSGSGSGTDFTLTISSLQPEDFATYYCQQANSFPFTFGPGTKVDIKR | 
6 |  |  | 3420 | H1H27732P-N297Q (antibody, human IgG1, V domains shown, human IgG1 Fc with N297Q) VH: QLQLQESGPGLVKPSETLSLTCTVSGGSISSSTYYWGWIRQPPGKGLEWIGSFYYSGSTYYNPSLKSRVTISVGTSKNQFSLKLSSVTAADTAVYFCARGGLLGRPFVIWGQGTMVTVSS VL: DIQMTQSPSSLSASVGDRVTITCRASQGIRNDLGWYQQKPGKAPKRLIYAASSLQSGVPSRFSGSGSGTEFTLTISSLQPEDFATYYCLQHNSYPLTFGGGTKVEIKR | 
7 | 1.2 nM |  |  | H1H27729P-N297Q (antibody, V domains shown) VH: QVQLVESGGGLVKPGGSLRLSCAASGFIFSDYYMSWIRQAPGKGLEWVSYISSSGTTIYGDSVKGRFTMSRDNAKNSLYLQMNSLRAEDTAVYYCARNYALFDYWGQGTLVTVSS VL: DIQMTQSPSSLSASVGDRVTITCQASQDISKYLNWYQQKPGKAPKLLIYYTSNLETGVPSRFSGSGSGTDFTFTISSLQPEDIATYYCHQSDYLPFTFGPGTKVDIKR | 
8 |  |  | 3550 | H1H27736P-N297Q (antibody, human IgG1, V domains shown, human IgG1 Fc with N297Q) VH: EVQLVESGGGLVQPGGSLRLSCAASGFTFSSYAMSWVRQAPGKGLEWVSSISGSGDSTFYTDSVKGRFTISRDISKNTLYLQMNSLRAEDTAVYYCAKDRLLWFGDLISPFHYWGQGTLVTVSS VL: EIVLTQSPGTLSLSPGERATLSCRASQSVSNIYLAWYQQKPAQAPRLLIYGASSRATGIPDRFSVSGSGTDFTLTISRLEPEDFAVYYCQQYGSSPRTFGQGTKVEIKR | 
9 |  |  |  | H1xH29283P2 (antibody, V domains shown, prefix H1xH not explained for the anti-MSR1 antibodies) VH: QVQLVQSGTEVKKPGSSVKVSCKASGGTFSRYTFSWVRQAPGQGLEWMGGIIPIFGTTNYAQKFQGRVTITTDESTSTVYMELSSLRSEDTAVYYCTRGGRYGWFDPWGQGTLVTVSS VL: not shown | binding signal ratio to isotype control (11 nM) [3]: 26 fold; binding signal ratio to isotype control (11 nM) [4]: 24 fold
10 |  |  | 4570 | H1H27756P-N297Q (antibody, human IgG1, V domains shown, human IgG1 Fc with N297Q) VH: QVQLVESGGGVVQPGRSLRLSCAASGFTFSNYDMHWVRQAPGKGLEWMAVISYDGINKYYADSVKGRFTISRDNSKNTLYLQMNSLRAEDTAVYYCAKGTYSWYFDLWGRGTLVTVSS VL: not shown | 
11 |  |  |  | H2aM21228N (antibody, mouse IgG2a, V domains shown, mouse IgG2a Fc) VH: VQLVESGGGLVQPGGSLRLSCAASGFTFSDHYMDWVRQAPGKGLEWVGRTRNKANSHTTEYAASVSGRFTISRDDSKNSLYLQMNSLKTEDTAVYYCTRAGIIGTLFDYWGQGTLVTVSS VL: not shown | binding signal ratio to isotype control (11 nM) [3]: 66 fold; binding signal ratio to isotype control (11 nM) [4]: 60 fold
12 |  |  | 3430 | H1H27760P2-N297Q (antibody, human IgG1, V domains shown, human IgG1 Fc with N297Q; also called H1H27760P-N297Q) VH: EVQLVESGGGLVQPGRSLRLSCAASGFTFDAYAMHWVRQAPGKGLEWVSGISWNSGSIGYADSVKGRFTISRDNAKNSLYLQMNSLREEDTALYYCAKDKILELYYYGMDVWGQGTTVTVSS VL: not shown | 
13 | 0.71 nM | 4.3 nM |  | H1H21234N (antibody, V domains shown) VH: QVQLQESGPGLVKPSETLSLTCTVTGGSISRNYWSWIRQPPGKGLEWIGYIYYSGSIDYNPSLKSRVTISVDTSKNQFSLKLSSMTAADTAVYYCARDRWNWKYGMDVWGQGTTVIVSS VL: EIVLTQSPGTLSLSPGERATLSCRASQTVRNNYLAWYHQKPGQAPRLLIYGASSRATGIPDRFSGSGSGTDFTLTISRLEPEDFTVYYCHQYGNSPWTFGQGTKMEIKR | 
14 |  |  |  | H2aM25695N (antibody, mouse IgG2a, V domains shown, mouse IgG2a Fc) VH: QVQLQESGPGLVKPSETLSLTCTVTGGSISRNYWSWIRQPPGKGLEWIGYIYYSGSINYNPSLKSRVTISVDMSKNQFSLKLNSVTAADTAVYYCARDRWNWKYGMDVWGQGTTVIVSS VL: EIVLTQSPGTLSLSPGERATLSCRASQTVRNSYLAWYHQKPGQAPRLLIYGASSRATGIPDRFSGSGSGTDFTLTISRLEPEDFAVYYCQQYGSSYWTFGQGTKMEIKR | binding signal ratio to isotype control (11 nM) [3]: 35 fold; binding signal ratio to isotype control (11 nM) [4]: 45 fold
15 |  |  | 3790 | H1H27749P-N297Q (antibody, human IgG1, V domains shown, human IgG1 Fc with N297Q) VH: QVQLQESGPGLVKPSETLSLTCTVSDGSISSYYWSWIRQPPGRGLEWIGFIYYSGSTSYNPSLKSRVTISVDTSMSQFSLKLRSVTAADTAVYYCARGSPFDYWGPGTLVTVSS VL: EIVLTQSPGTLSLSPGERATLSCRASQSVSSSYLAWYQQRPGQAPSLLISGASRRATGIPDRFSGSGSGTDFTLTIRRLEPEDFAMYYCQQYGSSPPTFGGGTKVEIKR | 
16 |  |  |  | H1xH27759P2 (antibody, V domains shown, prefix H1xH not explained for the anti-MSR1 antibodies) VH: EVQLVESGGGFVQPGGSLRLSCAASGFTFSSYAMSWVRQAPGKGLEWVSAISGTGSNTYYADSVKGRFTISRDNSKNTLYLQMNSLRAEDTAVYYCAKDRVTTVTYYFDYWGQGTLVTVSS VL: not shown | binding signal ratio to isotype control (11 nM) [3]: 22 fold; binding signal ratio to isotype control (11 nM) [4]: 21 fold
